The target in assay [1] is T1, Angiopoietin-2 binding to Tie-2 (Homo sapiens, UniProt O15123).
T1 construct: purchased R&D Systems, Inc. BT623 (Angiopoietin-2, biotinylated); 313-TI-100 (Tie-2/Fc)
T1 sequence (O15123 19-496): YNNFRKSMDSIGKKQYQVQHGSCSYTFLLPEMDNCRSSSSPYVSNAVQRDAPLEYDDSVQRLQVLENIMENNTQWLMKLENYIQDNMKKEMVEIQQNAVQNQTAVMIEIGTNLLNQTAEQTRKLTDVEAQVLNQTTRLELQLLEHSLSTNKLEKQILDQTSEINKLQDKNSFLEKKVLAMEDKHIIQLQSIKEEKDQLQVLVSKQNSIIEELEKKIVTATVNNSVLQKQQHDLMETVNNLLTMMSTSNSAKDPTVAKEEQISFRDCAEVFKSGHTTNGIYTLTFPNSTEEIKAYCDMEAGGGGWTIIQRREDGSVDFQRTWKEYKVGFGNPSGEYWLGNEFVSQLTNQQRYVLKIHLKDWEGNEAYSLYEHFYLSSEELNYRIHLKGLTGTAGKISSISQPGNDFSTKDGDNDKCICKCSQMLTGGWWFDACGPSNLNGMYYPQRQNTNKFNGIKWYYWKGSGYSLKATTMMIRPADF
Nature of the assay: Competitive binding assay (modified ELISA): inhibition of Angiopoietin-2 binding to Tie-2. As for the experimental part: As discussed above, Angiopoietin-2 exerts its biological effect by binding to the Tie-2 receptor. Monoclonal antibodies that inhibited Angiopoietin-2/Tie-2 binding were identified by a competitive binding assay using a modified ELISA. The mAb used were products of micro-purification from 50 ml of exhaustive supernatants of the hybridoma pools that were specific for Angiopoietin-2 (see above). 96-well Nunc Immplates™ were coated with 100 μl of recombinant human Tie-2/Fc fusion protein (R&D Systems, Inc., Cat. No. 313-TI-100) at 4 μg/ml by incubating overnight at 4° C. The plates were washed four times using Phosphate Buffer Saline (PBS) with a Skan™ Washer 300 station (SKATRON). The wells were blocked by 100 μl of ABX-blocking buffer (0.5% BSA, 0.1% Tween, 0.01% Thimerosal in PBS) for 1 hour.
Biotinylated recombinant human Angiopoietin-2 (R&D Systems, Inc. Cat. No. […] The plates were incubated at room temperature for two hours before the unbound molecules were washed off. Bound biotinylated Angiopoietin-2 was then detected using 100 μl/well of Streptavidin-HRP conjugate at 1:200 by incubating at room temperature for half an hour. After washing twice, the bound Streptavidin was detected by HRP substrate (R&D Systems, Cat. No. DY998). The plates were incubated for 30 minutes before 450 stop solution (100 μl/well, BioFX, Cat# BSTP-0100-01) was added to terminate the reaction. The light absorbance at 450 nm was determined by a Spectramax Plus reader.
Soluble recombinant Tie-2/Fc fusion protein at 10-fold molar excess to Angiopoietin-2 was used as a positive control. At this concentration, Tie-2/Fc inhibited binding of Angiopoietin-2 to immobilized Tie-2 by 80%.
To quantitate the inhibitory activities of the mAb on Angiopoietin-2 binding to Tie-2, the titer was determined for purified mAbs from the top candidates using a competitive binding assay. Each concentration of the mAb was tested in duplicate. The concentration-response relationship was found by curve fitting using Graphpad Prism™ graphic software (non-linear, Sigmoid curve). The maximal inhibition (efficacy) and IC50 (potency) were calculated by the software.

Assay [2] has as its system A431 human tumour xenografts. The experiment in a line: A431 xenograft efficacy study (Study A). The assay is classed as in vivo. The note with it: 3.19.3 10 mg/kg 2×wk i.p., VTKI 3 mg/kg/day p.o. As to the method:
(§1) The anti-tumor activity of monoclonal antibody 3.19.3 in combination with the VTKI 4-(4-fluoro-2-methylindol-5-yloxy)-6-methoxy-7-(3-piperidinopropoxy)quinazoline was evaluated in a xenograft model of human skin epidermoid carcinoma (Study A) and in a model of colorectal cancer (Study B) by using the A431 and Colo205 cell lines respectively.
(§2) A431 and Colo205 cells were cultured in flasks as routine until the cells reached sub-confluence. Immunodeficient 6-8 week old female mice (Ncr/nu/nu) were used. The cells were harvested and suspended in Matrigel. A cell suspension containing 1 to 5×10^6 cells was injected subcutaneously into the flank of the mice. The mice were randomized into different groups, each containing 10-15 mice. When the tumour volume reached 200 mm^3, the mice were randomized in each groups and the treatments were initiated. mAb 3.19.3 10 mg/kg in saline was injected intraperitoneally, twice per week for 2 weeks. 4-(4-fluoro-2-methylindol-5-yloxy)-6-methoxy-7-(3-piperidinopropoxy)quinazoline was treated peroral daily at doses ranging from 1.5 to 6 mg/kg in water containing 1% Tween80. The dimensions of each tumor were measured twice per week. The volume of the tumor was calculated as: Volume=Length×(Width)^2×0.5 (cm^3).

The subject of assay [3] is human Colo205 colon tumour xenografts. The experiment in a line: Colo205 xenograft efficacy study (Study B). The format is in vivo. The note with it: 3.19.3 10 mg/kg 2×wk i.p., VTKI 6 mg/kg/day p.o. As for the experimental part: as §1, §2

B1: mAb 3.19.3: fully human anti-Angiopoietin-2 monoclonal antibody, variable regions SEQ ID NO: 5-8; also binds Angiopoietin-1 (antibody, V domains shown)
VH: QVQLVESGGGVVQPGRSLRLSCAASGFTFTNYGMHWGRQAPGKGLEWVAVISHDGNNKYYVDSVKGRFTISRDNSKNTLYLQMNSLRAEDTAVYYCAREGIDFWSGLNWFDPWGQGTLVTVSSA
VL: EIVLTQSPGTLSLSPGERATLSCRASQSITGSYLAWYQQKPGQAPRLLICGASSWATGIPDRFSGSGSGTDFTLTISRLEPEDFAVYYCQQYSSSPITFGQGTRLEIKR
Regarding B1, in assay [1] (potency, competitive binding of Angiopoietin-2 to Tie-2, purified mAb), the EC50 – broadly, the midpoint of the concentration-response curve – came to 0.7976 µg/mL. In addition, the “Efficacy*” value in assay [1] (ratio of bound Angiopoietin-2 with mAb (30 μg/ml) versus without mAb) is reported as 0.3945. In assay [2], the “% tumor growth inhibition” value stood at 46%. Moreover, the % inhibition (in general, the relative decrease from the control value, in per cent) in assay [3] amounted to 35%.

The record behind these values is patent US20090123474A1, “COMBINATION OF ANGIOPOIETIN-2 ANTAGONIST AND OF VEGF-A, KDR AND/OR FLTL ANTAGONIST FOR TREATING CANCER” (ASTRAZENECA AB, priority 2005, published 2009).
